Substrate: N[C@@H](CCO)C(=O)O
Test: purified protein
Type: biochemical, Escherichia coli
Conditions: 0.3 mM 18:1/18:1 CDP-DAG, 10 mM MgCl2, 0.1 M KCl, 2.4 mM Triton X-100, pH 7.5, 25 °C, apparent constants

B1: EcPssA (E. coli phosphatidylserine synthase A, PssA) (Escherichia coli K-12) (protein)
chain: MLSKFKRNKHQQHLAQLPKISQSVDDVDFFYAPADFRETLLEKIASAKQRICIVALYLEQDDGGKGILNALYEAKRQRPELDVRVLVDWHRAQRGRIGAAASNTNADWYCRMAQENPGVDVPVYGVPINTREALGVLHFKGFIIDDSVLYSGASLNDVYLHQHDKYRYDRYHLIRNRKMSDIMFEWVTQNIMNGRGVNRLDDVNRPKSPEIKNDIRLFRQELRDAAYHFQGDADNDQLSVTPLVGLGKSSLLNKTIFHLMPCAEQKLTICTPYFNLPAILVRNIIQLLREGKKVEIIVGDKTANDFYIPEDEPFKIIGALPYLYEINLRRFLSRLQYYVNTDQLVVRLWKDDDNTYHLKGMWVDDKWMLITGNNLNPRAWRLDLENAILIHDPQLELAPQREKELELIREHTTIVKHYRDLQSIADYPVKVRKLIRRLRRIRIDRLISRIL
notes: purified EcPssA in Tris/NaCl/glycerol/octyl glucoside
B1 gave a Km of 4.6 ± 0.02 mM and a kcat of 2.86 ± 0.04 s⁻¹.
